The target of one data set is T1, XPGn1 D812A (Homo sapiens, UniProt P28715 1-112+=GT+750-990, D812A;internal_change).
T1 sequence: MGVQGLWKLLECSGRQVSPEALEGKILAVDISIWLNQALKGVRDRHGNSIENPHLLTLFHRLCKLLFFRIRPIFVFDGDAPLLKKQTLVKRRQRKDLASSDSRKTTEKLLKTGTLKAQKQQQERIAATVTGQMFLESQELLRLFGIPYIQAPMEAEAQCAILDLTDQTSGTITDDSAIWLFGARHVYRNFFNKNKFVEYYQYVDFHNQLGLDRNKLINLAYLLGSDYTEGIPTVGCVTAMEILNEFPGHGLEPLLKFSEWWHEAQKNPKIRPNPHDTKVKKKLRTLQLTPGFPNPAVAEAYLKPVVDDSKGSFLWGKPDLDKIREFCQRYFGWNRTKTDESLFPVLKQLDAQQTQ
The experiment in a line: crystal structure; C1, space group I422, one complex per ASU; EMSA: 2.5 uM DNA, 1-8 uM protein, buffer H (composition not in material) + 15% glycerol, 25 C, 30 min, 7% native PAGE; crystals: complex in 20 mM Tris pH 7.5, 100 mM KCl, grown in 5% PEG 3350, 50 mM sodium citrate pH 4.0, 22 C. Particulars: protein: recombinant; tags: N-terminal His-3C cleaved, leaves Gly-Pro-His before Met1; fork: 10 bp duplex, 1 nt 5' arm (strand 1), 1 nt 3' arm (strand 2). (In general: A gel shift assay detects complexes by their altered migration in electrophoresis.)

A further data set has as its target T2, XPGn3 K913A (Homo sapiens, UniProt P28715 2-112+=GT+750-990, K913A;internal_change).
T2 sequence: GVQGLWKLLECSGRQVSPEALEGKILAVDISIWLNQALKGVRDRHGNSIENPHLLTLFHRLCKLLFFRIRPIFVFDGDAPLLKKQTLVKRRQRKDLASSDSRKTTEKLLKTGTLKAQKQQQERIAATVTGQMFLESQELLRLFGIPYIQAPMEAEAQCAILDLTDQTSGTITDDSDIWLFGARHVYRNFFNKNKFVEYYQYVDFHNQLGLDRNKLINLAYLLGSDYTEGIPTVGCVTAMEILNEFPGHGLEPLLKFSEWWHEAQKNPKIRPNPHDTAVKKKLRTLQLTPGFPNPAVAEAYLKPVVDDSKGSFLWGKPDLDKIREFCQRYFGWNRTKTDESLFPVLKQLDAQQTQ
Kind of data set: EMSA; minimal or null effect; EMSA: 2.5 uM DNA, 1-8 uM protein, buffer H (composition not in material) + 15% glycerol, 25 C, 30 min, 7% native PAGE; crystals: complex in 20 mM Tris pH 7.5, 100 mM KCl, grown in 5% PEG 3350, 50 mM sodium citrate pH 4.0, 22 C. Particulars: protein: recombinant; tags: N-terminal His-TEV cleaved; fork: 12 bp duplex, 4 nt 5' arm (strand 1), 5 nt 3' arm (strand 2).

The next data set addresses T3, XPGn3 K917E (Homo sapiens, UniProt P28715 2-112+=GT+750-990, K917E;internal_change).
T3 sequence: T2 sequence with A277K, K281E
Described as above. Particulars: protein: recombinant; tags: N-terminal His-TEV cleaved; fork: 12 bp duplex, 4 nt 5' arm (strand 1), 5 nt 3' arm (strand 2).

For the next data set, the target named is T4, XPGn3 K916A (Homo sapiens, UniProt P28715 2-112+=GT+750-990, K916A;internal_change).
T4 sequence: T2 sequence with A277K, K280A
Described as above. Particulars: protein: recombinant; tags: N-terminal His-TEV cleaved; fork: 12 bp duplex, 4 nt 5' arm (strand 1), 5 nt 3' arm (strand 2).

Another data set has as its target T5, XPGn3 D812A (Homo sapiens, UniProt P28715 2-112+=GT+750-990, D812A;internal_change).
T5 sequence: T2 sequence with D176A, A277K
The experiment in a line: EMSA; no influence on binding; EMSA: 2.5 uM DNA, 1-8 uM protein, buffer H (composition not in material) + 15% glycerol, 25 C, 30 min, 7% native PAGE; crystals: complex in 20 mM Tris pH 7.5, 100 mM KCl, grown in 5% PEG 3350, 50 mM sodium citrate pH 4.0, 22 C. The note with it: protein: recombinant; tags: N-terminal His-TEV cleaved; fork: 12 bp duplex, 4 nt 5' arm (strand 1), 5 nt 3' arm (strand 2).

The target of the next data set is T6, XPGn3 K972E (Homo sapiens, UniProt P28715 2-112+=GT+750-990, K972E;internal_change).
T6 sequence: T2 sequence with A277K, K336E
The experiment in a line: EMSA; only cleavage mildly lowered; EMSA: 2.5 uM DNA, 1-8 uM protein, buffer H (composition not in material) + 15% glycerol, 25 C, 30 min, 7% native PAGE; crystals: complex in 20 mM Tris pH 7.5, 100 mM KCl, grown in 5% PEG 3350, 50 mM sodium citrate pH 4.0, 22 C. The note with it: protein: recombinant; tags: N-terminal His-TEV cleaved; fork: 12 bp duplex, 4 nt 5' arm (strand 1), 5 nt 3' arm (strand 2).

The next data set deals with T7, XPGn3 K828E (Homo sapiens, UniProt P28715 2-112+=GT+750-990, K828E;internal_change).
T7 sequence: T2 sequence with K192E, A277K
The description is as above. Particulars: protein: recombinant; tags: N-terminal His-TEV cleaved; fork: 12 bp duplex, 4 nt 5' arm (strand 1), 5 nt 3' arm (strand 2).

A further data set has as its target T8, XPGn3 R823A (Homo sapiens, UniProt P28715 2-112+=GT+750-990, R823A;internal_change).
T8 sequence: T2 sequence with R187A, A277K
Kind of data set: EMSA; value from '~10% reduction'; EMSA: 2.5 uM DNA, 1-8 uM protein, buffer H (composition not in material) + 15% glycerol, 25 C, 30 min, 7% native PAGE; crystals: complex in 20 mM Tris pH 7.5, 100 mM KCl, grown in 5% PEG 3350, 50 mM sodium citrate pH 4.0, 22 C. The note with it: protein: recombinant; tags: N-terminal His-TEV cleaved; fork: 12 bp duplex, 4 nt 5' arm (strand 1), 5 nt 3' arm (strand 2).

Data on 2 molecules can be found in paper PMC7515719, “The crystal structure of human XPG, the xeroderma pigmentosum group G endonuclease, provides insight into nucleotide excision DNA repair”.

Substitutions are numbered along the chain they refer to.

B1: DNA-1 splayed-arm (dsDNA)
DNA 1: TTGCAGAGTTC
DNA 2: GAACTCTGCAG
As for B1, the binding result with XPGn1 D812A is “binds”.

B2: DNA-2 splayed-arm (dsDNA)
DNA 1: TACTTGCAGAGTTCGC
DNA 2: GCGAACTCTGCAGAGCA
For the molecule B2, the binding result with XPGn3 K913A, with XPGn3 K917E, with XPGn3 K916A, with XPGn3 D812A, with XPGn3 K972E and with XPGn3 K828E was “binds” each time. In the data set with XPGn3 R823A, the binding signal is ~90 % of wild-type binding.
